Laboratory results: patent publication US10400230B2, “Protease variants and polynucleotides encoding same” (NOVOZYMES A/S, priority 2014, dated 2019)
Residue numbers refer to the chain shown, from its start. Names and notes keep the numbering of the source.

B1: K146N, S173P, S175P, F180Y: TY145 protease (SEQ ID NO 3) variant with these substitutions (protein, listed as Bacillus sp.)
chain: AVPSTQTPWGIKSIYNDQSITKTTGGSGIKVAVLDTGVYTSHLDLAGSAEQCKDFTQSNPLVDGSCTDRQGHGTHVAGTVLAHGGSNGQGVYGVAPQAKLWAYKVLGDNGSGYSDDIAAAIRHVADEASRTGSKVVINMSLGSSANDSLIASAVDYAYGKGVLIVAAAGNSGPGPNTIGYPGGLVNAVAVAALENVQQNGTYRVADFSSRGNPATAGDYIIQERDIEVSAPGASVESTWYTGGYNTISGTSMATPHVAGLAAKIWSANTSLSHSQLRTELQNRAKVYDIKGGIGAGTGDDYASGFGYPRVK
B2: I150N, S173P, S175P, F180Y: TY145 protease (SEQ ID NO 3) variant with these substitutions (protein, listed as Bacillus sp.)
chain: B1 chain with N146K, I150N
B3: K146A, S173P, S175P, F180Y: TY145 protease (SEQ ID NO 3) variant with these substitutions (protein, listed as Bacillus sp.)
chain: B1 chain with N146A
B4: K146W, S173P, S175P, F180Y: TY145 protease (SEQ ID NO 3) variant with these substitutions (protein, listed as Bacillus sp.)
chain: B1 chain with N146W
B5: K146T, S173P, S175P, F180Y: TY145 protease (SEQ ID NO 3) variant with these substitutions (protein, listed as Bacillus sp.)
chain: B1 chain with N146T
B6: K146F, S173P, S175P, F180Y: TY145 protease (SEQ ID NO 3) variant with these substitutions (protein, listed as Bacillus sp.)
chain: B1 chain with N146F
B7: S114Q, S173P, S175P, F180Y: TY145 protease (SEQ ID NO 3) variant with these substitutions (protein, listed as Bacillus sp.)
chain: B1 chain with S114Q, N146K
B8: I150A, S173P, S175P, F180Y: TY145 protease (SEQ ID NO 3) variant with these substitutions (protein, listed as Bacillus sp.)
chain: B1 chain with N146K, I150A
B9: S27K, S171D, S173P, G174R, S175P, G182A, L184F, Q198E, N199K, R224G, T297P: TY145 protease (SEQ ID NO 3) variant with these substitutions (protein, listed as Bacillus sp.)
chain: AVPSTQTPWGIKSIYNDQSITKTTGGKGIKVAVLDTGVYTSHLDLAGSAEQCKDFTQSNPLVDGSCTDRQGHGTHVAGTVLAHGGSNGQGVYGVAPQAKLWAYKVLGDNGSGYSDDIAAAIRHVADEASRTGSKVVINMSLGSSAKDSLIASAVDYAYGKGVLIVAAAGNDGPRPNTIGFPAGFVNAVAVAALENVQEKGTYRVADFSSRGNPATAGDYIIQEGDIEVSAPGASVESTWYTGGYNTISGTSMATPHVAGLAAKIWSANTSLSHSQLRTELQNRAKVYDIKGGIGAGPGDDYASGFGYPRVK
B10: S27K, V162T, S173P, G174K, S175P, F180Y, L184F, Q197K, Q198E, T297P: TY145 protease (SEQ ID NO 3) variant with these substitutions (protein, listed as Bacillus sp.)
chain: B9 chain with V162T, D171S, R174K, F180Y, A182G, Q197K, K199N, G224R
B11: S27K, S171N, S173P, G174R, S175P, F180Y, G182A, L184F, Q198E, N199K, R224G, T297P: TY145 protease (SEQ ID NO 3) variant with these substitutions (protein, listed as Bacillus sp.)
chain: B9 chain with D171N, F180Y
B12: S27K, S171N, S173P, G174R, S175P, F180Y, Q198E, N199K, R224G, T297P: TY145 protease (SEQ ID NO 3) variant with these substitutions (protein, listed as Bacillus sp.)
chain: B9 chain with D171N, F180Y, A182G, F184L
B13: S173P, S175P, F180Y, R224S: TY145 protease (SEQ ID NO 3) variant with these substitutions (protein, listed as Bacillus sp.)
chain: B1 chain with N146K, R224S
B14: S27K, I121V, S171N, S173P, G174R, S175P, F180Y, Q198E, R224S, T297P: TY145 protease (SEQ ID NO 3) variant with these substitutions (protein, listed as Bacillus sp.)
chain: B9 chain with I121V, D171N, F180Y, A182G, F184L, K199N, G224S
B15: S173P, S175P, F180Y, R224G: TY145 protease (SEQ ID NO 3) variant with these substitutions (protein, listed as Bacillus sp.)
chain: B1 chain with N146K, R224G

Assay: Determination of binding constants of inhibitor in Tris buffer at pH 8
Assay type: biochemical
Conditions: Ki of variant with the mutation relative to variant without the mutation
Experimental: (§1) Purified protease variants are pre-diluted to approximately 0.2 mg/ml in dilution buffer. 40 μl diluted protease is then mixed with 40 μl inhibitor solution (Z-Gly-Ala-NHCH(CH2C6H4pOH)C(OH)(SO3Na)—H, wherein Z is benzyloxycarbonyl) or 40 μl 4-FPBA solution in the well of a 96 well microtiter plate (Nunc F 96-MTP). […] After 10 min mixing of protease and inhibitor at room temperature, 30 μl of the mixture is transferred to a microtiter plate (Nunc U96 PP 0.5 ml) with 270 μl Model B detergent in the wells resulting in inhibitor concentrations of 0-30 μM and 4-FPBA concentrations of 0-6000 μM. Protease, inhibitor and detergent is mixed for 1 hour using magnetic bars for 1 hour at room temperature to reach equilibrium. Then 20 μl is transferred to a microtiter plate (Nunc F 96-MTP). 100 μl substrate solution is added and after 5 sec mixing absorbance at 405 nm is measured every 20 sec for 5 min on a SpectraMax Plus reader. Slope from linear regression of initial increase in absorbance at 405 nm is used for calculation of apparent binding constants.
(§2) It is assumed that protease and inhibitor react according to the equation: E+I ? EI
(§3) Where E is the protease, I is the inhibitor and EI is the protease-inhibitor complex. […] The concentration of enzyme-inhibitor in the detergent solution is then given by:
(§4) where Etot is the total protease concentration ([Etot]=[E]+[EI]), Itot is the total inhibitor concentration ([Itot]=[I]+[EI]), and Ki is the equilibrium binding constant for the reaction. The measured slopes V are given by:
(§5) where V0 is the slope without inhibitor added. To calculate apparent binding constant Ki least square fitting of measured slopes at various inhibitor concentrations to this equation is performed with Ki and V0 as variables.
(§6) Having the Ki for each variant, it is possible to calculate the effect of a single mutation, if data are available for at least two variants that differ only by that mutation. In this case, the relative Ki for the mutation is calculated:
(§7) [formula] A lower Ki is desirable, as a satisfactory inhibition can be obtained at a lower inhibitor concentration, so beneficial mutations have a relative Ki<1.0 The following table show such relative Kimutation. Each row show: • a mutation (column 1: “Mutation”) • a protease variant (relative to SEQ ID NO: 2) that comprise the mutation from column 1 (column 2: “Variant with the mutation”) • another protease variant (relative to SEQ ID NO: 2), that differs from the one in column 2 only by not having the mutation in column 1 (column 3: “Variant without the mutation”) • Relative Kimutation for the mutation in column 1, in the context of the variant in column 3, measured in Model B detergent (column 4: “inhibitor binding in Model B”) • Relative Kimutation for the mutation in column 1, in the context of the variant in column 3, measured in Tris buffer at pH 8 (column 5: “inhibitor binding in Tris buffer pH 8”)

Compared with B1, B2 is lower in “Inhibitor-binding relative Kimutation, inhibitor binding in Tris buffer pH 8” value: 0.91 for the first, 0.21 for the second.

Going from B3 to B4, the “Inhibitor-binding relative Kimutation, inhibitor binding in Tris buffer pH 8” value falls from 0.29 to 0.16.

First: B5
Second: B6
The “Inhibitor-binding relative Kimutation, inhibitor binding in Tris buffer pH 8” value of the first is lower: 0.06 for the first, 0.19 for the second.

Compared with B7, B8 is higher in “Inhibitor-binding relative Kimutation, inhibitor binding in Tris buffer pH 8” value: 0.34 for the first, 0.40 for the second.

Assay: Determination of binding constants of inhibitor (NNIC) in Model B detergent, Suc-AAPF-pNA read-out
Assay type: biochemical
Conditions: Ki of variant with the mutation relative to variant without the mutation
Experimental: as §1, §2, §3, §4, §5
The Ki for the parent protease and for each variant was calculated as described above
as §6, §7
Ki were calculated as shown in Example 3. The Improvement Factor (IF) or Relative

First: B9
Second: B10
The “Inhibitor-binding relative Kimutation, inhibitor binding in Model B (Table 4b)” value of the first is higher: 0.49 for the first, 0.17 for the second.

In the case of B11, the “Inhibitor-binding relative Kimutation, inhibitor binding in Model B (Table 4b)” value is reported as 0.69.

Same assay, conditions: Ki of variant with the mutation relative to variant without the mutation, <1.0 beneficial

Compared with B1, B2 is lower in “Inhibitor-binding relative Kimutation, inhibitor binding in Model B” value: 0.93 for the first, 0.35 for the second.

Going from B3 to B12, the “Inhibitor-binding relative Kimutation, inhibitor binding in Model B” value rises from 0.34 to 0.74.

Going from B13 to B14, the “Inhibitor-binding relative Kimutation, inhibitor binding in Model B” value rises from 0.50 to 0.56.

First: B4
Second: B5
The “Inhibitor-binding relative Kimutation, inhibitor binding in Model B” value of the first is higher: 0.23 for the first, 0.08 for the second.

Compared with B6, B7 is higher in “Inhibitor-binding relative Kimutation, inhibitor binding in Model B” value: 0.25 for the first, 0.63 for the second.

First: B8
Second: B15
The “Inhibitor-binding relative Kimutation, inhibitor binding in Model B” value of the first is higher: 0.50 for the first, 0.47 for the second.
